These sequences were tested on Escherichia coli TOP10 (assay: shrunken log2 fold change of peptide-encoding DNA abundance (4.5 h post-induction vs induction); higher = less antimicrobial activity (less host growth inhibition)). Settings: time post-induction: 4.5 h; library: site-saturation at positions 5, 18, 19, 20.
RRIRMRPPRLPRPRPRPMWCPRP was tested, and the “shrunken log2 fold change” value was 0.283. RRIRERPPRLPRPRPRPDWDPRP was tested, and the “shrunken log2 fold change” value was -0.248. In the case of RRIRRRPPRLPRPRPRPSRFPRP, the “shrunken log2 fold change” value is reported as 0.536. In the case of RRIRPRPPRLPRPRPRPPWSPRP, the “shrunken log2 fold change” value is reported as 0.00901. RRIRVRPPRLPRPRPRPIDSPRP was tested, and the “shrunken log2 fold change” value was -0.0289. For RRIRHRPPRLPRPRPRPPAFPRP, the “shrunken log2 fold change” value was 0.0237. With RRIRGRPPRLPRPRPRPLTKPRP the “shrunken log2 fold change” value was 0.664. For RRIRLRPPRLPRPRPRPDWMPRP, the “shrunken log2 fold change” value was -0.152. With RRIRMRPPRLPRPRPRPLIVPRP the “shrunken log2 fold change” value was 1.71. For RRIRIRPPRLPRPRPRPSFVPRP, the “shrunken log2 fold change” value was -0.509. In the case of RRIRPRPPRLPRPRPRPSHEPRP, the “shrunken log2 fold change” value is reported as 0.0992. With RRIRGRPPRLPRPRPRPGIFPRP the “shrunken log2 fold change” value was 0.254. In the case of RRIRFRPPRLPRPRPRPAPMPRP, the “shrunken log2 fold change” value is reported as 0.282. For RRIRRRPPRLPRPRPRPANKPRP, the “shrunken log2 fold change” value was 0.0263. RRIRQRPPRLPRPRPRPNHQPRP was tested, and the “shrunken log2 fold change” value was -0.0841. RRIRARPPRLPRPRPRPRCSPRP was tested, and the “shrunken log2 fold change” value was 0.205. In the case of RRIRIRPPRLPRPRPRPLNRPRP, the “shrunken log2 fold change” value is reported as -0.476. For RRIRNRPPRLPRPRPRPVRGPRP, the “shrunken log2 fold change” value was 0.649. RRIRGRPPRLPRPRPRPFIWPRP was tested, and the “shrunken log2 fold change” value was 0.351. RRIRCRPPRLPRPRPRPIRDPRP was tested, and the “shrunken log2 fold change” value was -0.231. RRIRQRPPRLPRPRPRPWRRPRP was tested, and the “shrunken log2 fold change” value was 0.241. In the case of RRIRCRPPRLPRPRPRPSDEPRP, the “shrunken log2 fold change” value is reported as -0.126. RRIRSRPPRLPRPRPRPRAKPRP was tested, and the “shrunken log2 fold change” value was 0.244. RRIRQRPPRLPRPRPRPMFAPRP was tested, and the “shrunken log2 fold change” value was 0.0682. RRIRTRPPRLPRPRPRPEQEPRP was tested, and the “shrunken log2 fold change” value was -0.0113. RRIRHRPPRLPRPRPRPDYNPRP was tested, and the “shrunken log2 fold change” value was -0.901. With RRIRFRPPRLPRPRPRPEDDPRP the “shrunken log2 fold change” value was -0.18. RRIRDRPPRLPRPRPRPIIMPRP was tested, and the “shrunken log2 fold change” value was -0.226. RRIRQRPPRLPRPRPRPMYLPRP was tested, and the “shrunken log2 fold change” value was -0.415. RRIRRRPPRLPRPRPRPDKQPRP was tested, and the “shrunken log2 fold change” value was 0.0803. RRIRTRPPRLPRPRPRPLILPRP was tested, and the “shrunken log2 fold change” value was -0.839. With RRIRSRPPRLPRPRPRPEPDPRP the “shrunken log2 fold change” value was 0.953. RRIRYRPPRLPRPRPRPEYYPRP was tested, and the “shrunken log2 fold change” value was -0.0128. RRIRRRPPRLPRPRPRPHVKPRP was tested, and the “shrunken log2 fold change” value was -0.32. For RRIRHRPPRLPRPRPRPVVMPRP, the “shrunken log2 fold change” value was -0.245. With RRIRCRPPRLPRPRPRPWDVPRP the “shrunken log2 fold change” value was 0.0309. In the case of RRIRHRPPRLPRPRPRPMRPPRP, the “shrunken log2 fold change” value is reported as 0.36. RRIRERPPRLPRPRPRPQNPPRP was tested, and the “shrunken log2 fold change” value was -0.213. RRIRFRPPRLPRPRPRPLVLPRP was tested, and the “shrunken log2 fold change” value was -0.251. RRIRPRPPRLPRPRPRPHKVPRP was tested, and the “shrunken log2 fold change” value was -0.429. In the case of RRIRSRPPRLPRPRPRPPSQPRP, the “shrunken log2 fold change” value is reported as 0.235. With RRIRLRPPRLPRPRPRPLADPRP the “shrunken log2 fold change” value was -0.0654. RRIRLRPPRLPRPRPRPQGIPRP was tested, and the “shrunken log2 fold change” value was -0.0354. RRIRIRPPRLPRPRPRPRCFPRP was tested, and the “shrunken log2 fold change” value was -0.141. For RRIRARPPRLPRPRPRPPQDPRP, the “shrunken log2 fold change” value was 1.13. RRIRPRPPRLPRPRPRPGDQPRP was tested, and the “shrunken log2 fold change” value was 3.33. In the case of RRIRFRPPRLPRPRPRPDQKPRP, the “shrunken log2 fold change” value is reported as -0.0128. In the case of RRIRNRPPRLPRPRPRPSTNPRP, the “shrunken log2 fold change” value is reported as -0.337. With RRIRWRPPRLPRPRPRPAEAPRP the “shrunken log2 fold change” value was 0.0865. For RRIRCRPPRLPRPRPRPYCPPRP, the “shrunken log2 fold change” value was -0.968. For RRIRPRPPRLPRPRPRPPTVPRP, the “shrunken log2 fold change” value was 0.279. With RRIRYRPPRLPRPRPRPQTAPRP the “shrunken log2 fold change” value was -0.0183. For RRIRIRPPRLPRPRPRPHDWPRP, the “shrunken log2 fold change” value was -0.317. For RRIRCRPPRLPRPRPRPWIHPRP, the “shrunken log2 fold change” value was -0.277. With RRIRARPPRLPRPRPRPAQCPRP the “shrunken log2 fold change” value was 0.469. RRIRKRPPRLPRPRPRPFHHPRP was tested, and the “shrunken log2 fold change” value was -0.131. For RRIRYRPPRLPRPRPRPNNQPRP, the “shrunken log2 fold change” value was -1.05. In the case of RRIRARPPRLPRPRPRPWQRPRP, the “shrunken log2 fold change” value is reported as 0.000557. In the case of RRIRHRPPRLPRPRPRPNHWPRP, the “shrunken log2 fold change” value is reported as -0.594. With RRIRDRPPRLPRPRPRPDCCPRP the “shrunken log2 fold change” value was -0.0205. In the case of RRIRKRPPRLPRPRPRPCGEPRP, the “shrunken log2 fold change” value is reported as 0.166. For RRIRPRPPRLPRPRPRPIYQPRP, the “shrunken log2 fold change” value was -0.35. With RRIRQRPPRLPRPRPRPRVVPRP the “shrunken log2 fold change” value was 0.0149. With RRIRWRPPRLPRPRPRPDRDPRP the “shrunken log2 fold change” value was 0.0716. With RRIRGRPPRLPRPRPRPTTCPRP the “shrunken log2 fold change” value was 0.849. RRIRHRPPRLPRPRPRPGGVPRP was tested, and the “shrunken log2 fold change” value was 0.237. For RRIRPRPPRLPRPRPRPCLAPRP, the “shrunken log2 fold change” value was -0.109. RRIRQRPPRLPRPRPRPIIQPRP was tested, and the “shrunken log2 fold change” value was -0.248. With RRIRWRPPRLPRPRPRPHYNPRP the “shrunken log2 fold change” value was -0.772. For RRIRIRPPRLPRPRPRPTHPPRP, the “shrunken log2 fold change” value was 0.225. With RRIRNRPPRLPRPRPRPNCHPRP the “shrunken log2 fold change” value was 0.0111. For RRIRKRPPRLPRPRPRPVYIPRP, the “shrunken log2 fold change” value was -0.564. RRIRTRPPRLPRPRPRPLEKPRP was tested, and the “shrunken log2 fold change” value was 0.419. RRIRDRPPRLPRPRPRPINWPRP was tested, and the “shrunken log2 fold change” value was -0.044. RRIRPRPPRLPRPRPRPLEPPRP was tested, and the “shrunken log2 fold change” value was 0.0434. In the case of RRIRVRPPRLPRPRPRPIDNPRP, the “shrunken log2 fold change” value is reported as -0.447. In the case of RRIRQRPPRLPRPRPRPTTHPRP, the “shrunken log2 fold change” value is reported as 0.00963. RRIRFRPPRLPRPRPRPPNQPRP was tested, and the “shrunken log2 fold change” value was 0.23. In the case of RRIRLRPPRLPRPRPRPPGHPRP, the “shrunken log2 fold change” value is reported as 0.224. RRIRMRPPRLPRPRPRPVCPPRP was tested, and the “shrunken log2 fold change” value was 0.0129. For RRIRSRPPRLPRPRPRPQRCPRP, the “shrunken log2 fold change” value was -0.0342. RRIRNRPPRLPRPRPRPPIAPRP was tested, and the “shrunken log2 fold change” value was -0.312. RRIRFRPPRLPRPRPRPHNMPRP was tested, and the “shrunken log2 fold change” value was -0.896. For RRIRCRPPRLPRPRPRPRAHPRP, the “shrunken log2 fold change” value was 0.361. RRIRLRPPRLPRPRPRPQIWPRP was tested, and the “shrunken log2 fold change” value was -0.166. In the case of RRIRVRPPRLPRPRPRPEQVPRP, the “shrunken log2 fold change” value is reported as 0.0835. In the case of RRIRDRPPRLPRPRPRPFCFPRP, the “shrunken log2 fold change” value is reported as 0.265. RRIRNRPPRLPRPRPRPNGAPRP was tested, and the “shrunken log2 fold change” value was -0.0902. In the case of RRIRGRPPRLPRPRPRPERRPRP, the “shrunken log2 fold change” value is reported as 0.277. With RRIRNRPPRLPRPRPRPEQFPRP the “shrunken log2 fold change” value was -0.0122. With RRIRDRPPRLPRPRPRPCFEPRP the “shrunken log2 fold change” value was 0.708. For RRIRIRPPRLPRPRPRPGTYPRP, the “shrunken log2 fold change” value was -0.0378. In the case of RRIRRRPPRLPRPRPRPDWHPRP, the “shrunken log2 fold change” value is reported as -0.0494. For RRIRCRPPRLPRPRPRPTTSPRP, the “shrunken log2 fold change” value was -0.0643. For RRIRWRPPRLPRPRPRPCAKPRP, the “shrunken log2 fold change” value was -0.0723. For RRIRIRPPRLPRPRPRPDRGPRP, the “shrunken log2 fold change” value was -0.0332. For RRIRRRPPRLPRPRPRPDNIPRP, the “shrunken log2 fold change” value was 0.123. In the case of RRIRCRPPRLPRPRPRPEAEPRP, the “shrunken log2 fold change” value is reported as 0.656. RRIRFRPPRLPRPRPRPCCQPRP was tested, and the “shrunken log2 fold change” value was -0.439. For RRIRRRPPRLPRPRPRPHNEPRP, the “shrunken log2 fold change” value was -0.0783. With RRIRRRPPRLPRPRPRPVIAPRP the “shrunken log2 fold change” value was 0.654. RRIRFRPPRLPRPRPRPIPKPRP was tested, and the “shrunken log2 fold change” value was 0.179. For RRIRFRPPRLPRPRPRPKGSPRP, the “shrunken log2 fold change” value was 0.089. RRIRIRPPRLPRPRPRPHYIPRP was tested, and the “shrunken log2 fold change” value was -0.155. In the case of RRIRVRPPRLPRPRPRPDFRPRP, the “shrunken log2 fold change” value is reported as 0.00256. With RRIRGRPPRLPRPRPRPQQRPRP the “shrunken log2 fold change” value was 1.43. RRIRRRPPRLPRPRPRPPVEPRP was tested, and the “shrunken log2 fold change” value was 0.593. RRIRARPPRLPRPRPRPEICPRP was tested, and the “shrunken log2 fold change” value was 1.01. With RRIRWRPPRLPRPRPRPILAPRP the “shrunken log2 fold change” value was 0.364. For RRIRNRPPRLPRPRPRPTPQPRP, the “shrunken log2 fold change” value was 0.232. For RRIRARPPRLPRPRPRPREQPRP, the “shrunken log2 fold change” value was 0.825. In the case of RRIRDRPPRLPRPRPRPYNPPRP, the “shrunken log2 fold change” value is reported as -0.309. With RRIRNRPPRLPRPRPRPHRDPRP the “shrunken log2 fold change” value was -0.0417. RRIRRRPPRLPRPRPRPIDQPRP was tested, and the “shrunken log2 fold change” value was 0.696. With RRIRSRPPRLPRPRPRPCWSPRP the “shrunken log2 fold change” value was 0.0886. With RRIRLRPPRLPRPRPRPFFYPRP the “shrunken log2 fold change” value was -0.343. RRIRRRPPRLPRPRPRPTANPRP was tested, and the “shrunken log2 fold change” value was 0.589. RRIRTRPPRLPRPRPRPGREPRP was tested, and the “shrunken log2 fold change” value was 0.0772. For RRIRHRPPRLPRPRPRPIDKPRP, the “shrunken log2 fold change” value was 0.0156. RRIRMRPPRLPRPRPRPINQPRP was tested, and the “shrunken log2 fold change” value was 0.257. RRIRFRPPRLPRPRPRPIPGPRP was tested, and the “shrunken log2 fold change” value was -0.00876. For RRIRGRPPRLPRPRPRPNPMPRP, the “shrunken log2 fold change” value was 0.17. With RRIRIRPPRLPRPRPRPTPDPRP the “shrunken log2 fold change” value was -0.0173. RRIRTRPPRLPRPRPRPRAGPRP was tested, and the “shrunken log2 fold change” value was 0.41. RRIRSRPPRLPRPRPRPWFYPRP was tested, and the “shrunken log2 fold change” value was -0.172.
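Also: peptides expressed intracellularly from a pBAD plasmid library in pooled LB shake-flask culture, induced with 0.3% L-arabinose, DNA abundance read by NGS, three biological replicates, DESeq2 with apeglm shrinkage.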
